Reference: patent publication US12312397B2, “Anti-O2 antibodies and uses thereof” (priority 2016, dated 2025)
Substitutions are numbered along the chain they refer to.

Experiments:
O2 LPS = test: ELISA binding to O2 LPS; set-up: species or system Klebsiella pneumoniae; conditions: secondary screening, ELISA
Procedure: (§1) The coated plates were incubated with cell culture supernatants from polyclonally stimulated lymphocytes (AMVBRA) or from monoclonal immortalized B cells (donor interrogations) containing fully human antibodies or with diluted plasma samples (PBMC donor selections) for 1 hour at room temperature. The plates were then washed with PBS containing 0.1% Tween-20 (PBS-T). Secondary antibody was added; either Alkaline Phosphatase-conjugated Goat Anti-Human IgG-AP (Southern Biotech, 2040-04, 1:1000 in PBS-B) or Peroxidase AffiniPure F(ab′)2 Fragment Goat Anti-Human IgG, Fc Fragment Specific (Jackson ImmunoResearch #309 036 098, 1:5000 in PBS-B) were used. Secondary antibodies were typically incubated for 1 h. Plates were washed three times with PBS-T, and P-NitroPhenyl Phosphate (pNPP, Sigma-Aldrich, cat #N2765-100TAB) or Sureblue (KPL, 53-00-03) substrates were added and incubated for 10 min or until the development of a colorimetric reaction. In the case of the HRP substrate Sureblue, the reaction was stopped by adding an equal volume of 0.2N HCl. The absorbance at 405 nm (pNPP) or 450 nm (Sureblue) was measured by a microplate reader (Biotek, Elx808).
(§2) The coated plates were incubated with serial dilutions of the monoclonal antibodies for 1 hour at room temperature. The plates were then washed with PBS containing 0.1% Tween-20 (PBS-T). Alkaline Phosphatase-conjugated Goat Anti-Human IgG (Southern Biotech, 2040-04, 1:1000 in PBS-B) was added. The secondary antibody reactions were incubated for 1 h. Plates were washed three times with PBS-T, and P-NitroPhenyl Phosphate (pNPP, Sigma-Aldrich, cat #N2765-100TAB) substrate was added and incubated for 30 min or until the development of a colorimetric reaction. The absorbance at 405 nm was measured by a microplate reader (Biotek, Elx808). The data was plotted with Graphpad Prism software. Representative mAbs from each class were tested for their binding to O1 LPS (FIG. 2A) and O2 LPS (FIG. 2B), and EC50 values were obtained (FIG. 2C). The majority of the anti-O2 LPS mAbs bound to both O1 and O2 LPS by ELISA. […] None of these LPS mAbs bound to the 03, 04, 05, 07, or 012 LPS serotypes (see e.g., FIG. 1A).

[1] = tested on: O1 LPS activation of NF-κB in RAW264.7-lux cells; test: LPS neutralization assay (NF-κB luciferase, RAW264.7-lux), O1 LPS; format: cell-based, murine; conditions: for neutralizing activity against O1 LPS (NF-κB activation): human IgG1 format; for neutralization of LPS-O1: secondary screening
Procedure: (§3) Activation of TLR4 receptors by bacterial LPS leads to downstream activation of the NF-κB transcriptional regulator. A decrease in induction of NF-κB-responsive luciferase activity was used to quantify LPS neutralization activity by LPS mAbs. A murine RAW264.7 macrophage cell line was engineered to carry a firefly luciferase reporter gene under the control of an NF-κB-responsive promoter (RAW264.7-lux). Serially diluted antibody stocks were mixed with LPS in a 1:1 ratio and incubated at 4° C. for 1 hr. Antibody/LPS mixtures were then diluted 1:10 into assay plates containing pre-seeded RAW264.7-lux cells (4e5 cells/well), which were then placed at 37° C. with 5% CO2 for 2.5 hours. Following incubations, Steady Glo solution (Promega) was added to each well and incubated for another 20 min protected from light. The relative light units (RLUs) were measured using a multi-mode microplate reader (Synergy 2, Biotek or envision multilabel plate reader, Perkin Elmer). The percentage of inhibition was determined by comparing RLU derived from assays with no antibodies to RLU derived from assays with anti-K. pneumoniae mAbs and assays performed with a negative control mAb. […] All mAbs were tested in human IgG1 format.

[2] = tested on: O2 LPS activation of NF-κB in RAW264.7-lux cells; test: LPS neutralization assay (NF-κB luciferase, RAW264.7-lux), O2 LPS; format: cell-based, murine; set-up: key to LPS Neut O2: +++: Strongly positive activity; +: Positive activity; +/−: Somewhat positive depending upon the test conditions; conditions: for LPS Neut O2: Table 7 summary; for neutralizing activity against O2 LPS (NF-κB activation): human IgG1 format; for neutralization of LPS-O2: secondary screening
Procedure: as §3

[3] = tested on: K. pneumoniae 8570ΔcpsBLux (O2); test: Opsonophagocytic killing (OPK) assay, O2 capsule mutant; format: cell-based, Klebsiella pneumoniae; set-up: key to D Capsule OPK O2: +++: Strongly positive activity; +: Positive activity; +/−: Somewhat positive depending upon the test conditions; conditions: for D Capsule OPK O2: capsule mutant strain 8570ΔcpsB lux (O2); for OPK activity against O2 capsule mutant: secondary screening
Procedure: OPK activity of anti-O2 LPS mAbs was tested against O1 and O2 strains. Briefly, log phase cultures of luminescent K. pneumoniae strains 8570ΔcpsBLux (O2) and 43816ΔcpsBLux (O1) were diluted to ˜2×10^6 cells/ml. K. pneumoniae cells, 5e5/well dimethylformamide (DMF) differentiated HL-60 cells, cleared baby rabbit serum (1:10 Cedarlane), and a series dilution of antibodies (2 ng-2.5 μg/mL) were mixed in 96-well plates and incubated at 37° C. for two hours with shaking (250 rpm). The relative light units (RLUs) were then measured using a multi-mode microplate reader (Synergy 2, Biotek or envision multilabel plate reader, Perkin Elmer). The percentage of killing was determined by comparing RLU derived from assays with no antibodies to RLU derived from assays with anti-K. pneumoniae mAbs and assays performed with a negative control mAb. Positive killing was determined where the percentage of killing is above 40%.

O1 LPS = test: ELISA binding to O1 LPS; set-up: species or system Klebsiella pneumoniae; conditions: secondary screening
Procedure: as §1, §2

B1: KPS18: Class III anti-O2 antigen human mAb; VH SEQ ID NO: 98, VL SEQ ID NO: 99 (antibody, V domains shown)
VH: EVRLVESGGGLVKPGGSLRLSCAASGFTFKNAWMSWIRQAPGKGLEWVGRVKNEVDGGTIDYGVPVRGRFTISRDDSQGTLSLEMNSLREDDTGIYYCRAFWSGFPAGYWGQGTLVSVSS
VL: QSVLTQPPSLSAAPGQTVTIACSGSRSNIGSDSVSWFQQFPGTAPRVLMYDNNKRPSGISDRFSGSKSGTSVTLDITGLQTGDEADYYCATWDSSLSAYVFGSGTKVTVL
modifications: Description of Artificial Sequence: SyntheticKPS18 VH polypeptide; Description of Artificial Sequence: SyntheticKPS18 VL polypeptide
Q: Which “binding to LPS-O2” value (O2 LPS) does the source give for B1 here?
A: The value was “bound specifically”.

Q: And the “neutralizing activity against O1 LPS (NF-κB activation)” value (from here on “neutralizing activity against O1 LPS”) [1]?
A: Its value is “no activity”.

Q: What about the “LPS Neut O2” value [2] of the same molecule?
A: Its value is “+/−”.

Q: And the “neutralizing activity against O2 LPS (NF-κB activation)” value (shortened to “neutralizing activity against O2 LPS”) [2]?
A: Its value is “moderate neutralizing activity”.

Q: And the “neutralization of LPS-O2” value [2]?
A: Its value is “neutralized”.

Q: What about the “D Capsule OPK O2” value [3] of the same molecule?
A: The value was “+++”.

Q: What about the “OPK activity against O2 capsule mutant” value [3] of the same molecule?
A: Its value is “strong OPK activity”.

B2: KPS24: Class III anti-O2 antigen human mAb; VH SEQ ID NO: 107, VL SEQ ID NO: 108 (antibody, V domains shown)
VH: ELHLVESGGGLVKPGGSLRLSCAASGFTFKNAWMSWIRQAPGKGLEWVGRVKSEVDGGTTDYGVPVRGRFTISRDDSQSTLSLEMSSLQDDDTGVYYCRAFWSDFQTGYWGQGTLVTVSS
VL: B1 VL with L10V, R26S, F40L, D51E, D75G, T91A, S97R
modifications: Description of Artificial Sequence: SyntheticKPS24 VH polypeptide; Description of Artificial Sequence: SyntheticKPS24 VL polypeptide
Q: What does the source list for B2?
A: binding to LPS-O2 (O2 LPS): bound specifically; neutralizing activity against O1 LPS (NF-κB activation) [1]: no activity; LPS Neut O2 [2]: +/−; neutralizing activity against O2 LPS (NF-κB activation) [2]: moderate neutralizing activity; neutralization of LPS-O2 [2]: neutralized; D Capsule OPK O2 [3]: +++; OPK activity against O2 capsule mutant [3]: strong OPK activity

B3: KPN44: anti-O2 antigen human mAb; VH SEQ ID NO: 62, VL SEQ ID NO: 63 (antibody, V domains shown)
VH: QVQLQESGPGLVKPSETLSLTCTVSGGSTSSYYWNWIRQAPGKPLQWIANIHHGGTTYYNPSLRSRVTMSLDTSNNQFSLKLTSVTAADTAVYFCARESDDGYRWNYFDYWGQGVLVTVSS
VL: EIVLTQSPASLSLSPGDRATLSCRASQTITNYLAWYQHKPGQAPRLLIFDMSKRATGIPARFSGSGSGTDFTLTISSLEPEDFAVYYCQHRSNWPLFTFGPGTNVDIK
modifications: Description of Artificial Sequence: SyntheticKPN44 VH polypeptide; Description of Artificial Sequence: SyntheticKPN44 VL polypeptide
Q: B3 was tested. Which “binding to LPS-O1” value (O1 LPS) did it give?
A: Its value is “bind”.

Q: What about the “binding to LPS-O2” value (O2 LPS) of the same molecule?
A: The value was “bind”.

Q: What about the “neutralizing activity against O1 LPS” value [1] of the same molecule?
A: Its value is “blocked”.

Q: And the “neutralization of LPS-O1” value [1]?
A: Its value is “neutralize”.

Q: What about the “neutralizing activity against O2 LPS” value [2] of the same molecule?
A: Its value is “blocked”.

Q: What about the “neutralization of LPS-O2” value [2] of the same molecule?
A: The value was “neutralize”.

Q: And the “OPK activity against O2 capsule mutant” value [3]?
A: The value was “showed OPK activity”.

B4: KPS30: Class I anti-O2 antigen human mAb; VH SEQ ID NO: 125, VL SEQ ID NO: 126 (antibody, V domains shown)
VH: EMQLVESGGGLVQPGVSLRLSCVDSGFSFSTSWLAWVRQAPGKGLEWLANIDPDGSTRNHVDSVRGRFTISRDNAKNSLYLQMNSLRAEDTAVYYCARDYAYNRFDYWGQGTMVTVSS
VL: QSALTQPPSASGSPGQSVVISCTGTSSDIGANNYVSWYQQHPGKAPKLLLYEVNKRPSGVPDRFSASKSGNTASLTVSGLLAEDEADYYCCGYGGGRVFGGGTKLTVL
modifications: Description of Artificial Sequence: SyntheticKPS30 VH polypeptide; Description of Artificial Sequence: SyntheticKPS30 VL polypeptide
Q: What does the source list for B4?
A: binding to LPS-O1 (O1 LPS): bound; binding to LPS-O2 (O2 LPS): bound; neutralization of LPS-O1 [1]: neutralized; neutralization of LPS-O2 [2]: neutralized; D Capsule OPK O2 [3]: +++; OPK activity against O2 capsule mutant [3]: strong OPK activity

B5: KPN17: Class I anti-O2 antigen human mAb; VH SEQ ID NO: 71, VL SEQ ID NO: 72 (antibody, V domains shown)
VH: EVQLVESGGGLVQPGGSLRLSCAASGFTFSHFWMHWVRQAPGQGLVWVARIDGSVTNLRYAGSVEGRFTISRDNAKNTLYLQMNSLRDEDTAVYYCARDLVGIGTPAGYGMDVWGQGTTVTVSS
VL: DIQLTQSPSFLSASVGDRVTITCRASQGISTYLAWYQQKPGKAPKLLIYAASTLQSGVPSRFSGSGSGTEFTLTINSLQSEDFATYYCQQLTSHLYTFGQGTKLEIK
modifications: Description of Artificial Sequence: SyntheticKPN17 VH polypeptide; Description of Artificial Sequence: SyntheticKPN17 VL polypeptide
Q: Which “binding to LPS-O1” value (O1 LPS) does the source give for B5 here?
A: Its value is “bind”.

Q: And the “binding to LPS-O2” value (O2 LPS)?
A: Its value is “bind”.

Q: What about the “neutralizing activity against O1 LPS” value [1] of the same molecule?
A: Its value is “no activity”.

Q: What about the “LPS Neut O2” value [2] of the same molecule?
A: The value was “+/−”.

Q: And the “neutralizing activity against O2 LPS” value [2]?
A: Its value is “moderate neutralizing activity”.

Q: What about the “neutralization of LPS-O2” value [2] of the same molecule?
A: Its value is “neutralize”.

Q: What about the “D Capsule OPK O2” value [3] of the same molecule?
A: Its value is “+”.

Q: What about the “OPK activity against O2 capsule mutant” value [3] of the same molecule?
A: The value was “showed OPK activity”.
